PMC8888459

Assays:
[1] = molecular target: NIA–Isu1 complex with C. thermophilum Isu1 (S. cerevisiae | E. coli (endogenous in the expression host) | C. thermophilum) (UniProt P25374); assay: pull-down; competition: Yah1^GST (2.5 μM) with NIA (5 μM), with or without Isu1Sc or Isu1Ct (7.5 μM), then Yfh1 WT or DE/KK added (12.5 μM or increasing concentrations); glutathione resin; densitometry, amount without Yfh1 set as 100%; buffer PD
[2] = molecular target: Yah1-GST fusion protein (S. cerevisiae) (UniProt Q12184); assay: pull-down; GST-tagged Yah1 bait (2.5 μM) incubated with NIA (5 μM or increasing) and/or Isu1 (7.5 μM) in buffer PD (40 mM Hepes–KOH pH 7.5, 5% glycerol, 100 mM KCl, 1 mM DTT, 10 mM MgCl2) 15 min at 25 °C; glutathione agarose 1 h at 4 °C; SDS-PAGE, InstantBlue, densitometry corrected for binding to GST; aerobic (Yah1 cluster oxidised)
Yah1-GST fusion protein (S. cerevisiae), sequence (Q12184 17-172): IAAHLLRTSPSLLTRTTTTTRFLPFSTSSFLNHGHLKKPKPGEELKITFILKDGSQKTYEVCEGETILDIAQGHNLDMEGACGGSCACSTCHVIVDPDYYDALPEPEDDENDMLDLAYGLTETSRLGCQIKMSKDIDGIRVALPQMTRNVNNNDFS

percent of the control left pulled down with Yah1^GST at 5 μM Yfh1 [1] [%] | percent reduction of Nfs1, Isd11 and Isu1 pulled down with Yah1^GST at a fivefold excess of Yfh1 (12.5 μM) [1] [%] | binding as percent of the WT control [2] [%] | Substance
30 | 85 | – | Yfh1 (frataxin) with a C-terminal polyhistidine tag (from UniProt Q07540 52-174) (natural protein)
– | – | 20 | NIA–Isu1 complex containing Nfs1(R313E, R316E, R318E), with Isu1Ct (from UniProt P25374 37-497; Q6Q560 1-94; P0A6A8 1-78)
– | – | 30 | NIA–Isu1 complex containing Nfs1(R313A, R316A, R318A), with Isu1Ct (from UniProt P25374 37-497; Q6Q560 1-94; P0A6A8 1-78)
